Measurements published in article PMC9245612 (Proceedings of the National Academy of Sciences of the …, 2022).

B1: human cytosolic NADK, full-length (enzyme, UniProt O95544 1-446, looked up)
chain: MEMEQEKMTMNKELSPDAAAYCCSACHGDETWSYNHPIRGRAKSRSLSASPALGSTKEFRRTRSLHGPCPVTTFGPKACVLQNPQTIMHIQDPASQRLTWNKSPKSVLVIKKMRDASLLQPFKELCTHLMEENMIVYVEKKVLEDPAIASDESFGAVKKKFCTFREDYDDISNQIDFIICLGGDGTLLYASSLFQGSVPPVMAFHLGSLGFLTPFSFENFQSQVTQVIEGNAAVVLRSRLKVRVVKELRGKKTAVHNGLGENGSQAAGLDMDVGKQAMQYQVLNEVVIDRGPSSYLSNVDVYLDGHLITTVQGDGVIVSTPTGSTAYAAAAGASMIHPNVPAIMITPICPHSLSFRPIVVPAGVELKIMLSPEARNTAWVSFDGRKRQEIRHGDSISITTSCYPLPSICVRDPVSDWFESLAQCLHWNVRKKQAHFEEEEEEEEEG
B2: human NADK2 mature protein (amino acids 47 to 442) (enzyme, UniProt Q4G0N4 47-442, looked up)
chain: LGQGQPRELAGCGSRADGGFRPSRVVVVAKTTRYEFEQQRYRYAELSEEDLKQLLALKGSSYSGLLERHHIHTKNVEHIIDSLRNEGIEVRLVKRREYDEETVRWADAVIAAGGDGTMLLAASKVLDRLKPVIGVNTDPERSEGHLCLPVRYTHSFPEALQKFYRGEFRWLWRQRIRLYLEGTGINPVPVDLHEQQLSLNQHNRALNIERAHDERSEASGPQLLPVRALNEVFIGESLSSRASYYEISVDDGPWEKQKSSGLNLCTGTGSKAWSFNINRVATQAVEDVLNIAKRQGNLSLPLNRELVEKVTNEYNESLLYSPEEPKILFSIREPIANRVFSSSRQRCFSSKVCVRSRCWDACMVVDGGTSFEFNDGAIASMMINKEDELRTVLLEQ

Legend:
[1] = target: the molecule itself; test: SEC
[2] = substrate: Nc1ncnc2c1ncn2[C@@H]1O[C@H](COP(=O)(O)OP(=O)(O)OP(=O)(O)O)[C@@H](O)[C@H]1O; test: purified protein; conditions: co-substrate NAD+, 37 °C

| Protein | stoichiometry N [1] | Km [2] [µM] |
| --- | --- | --- |
| B1 | 4 |  |
| B2 | 2 | 2200 |
